Measurements: patent US20230036655A1 (OTSUKA PHARMACEUTICAL, published 2023)
Positions count from the first letter of the chain named. Values belong to the molecule of their own block, whether it stands above or below them.

Tests used:
[1] = biological target: T1, mutant hGDF15 R13A, R16A (human, UniProt Q99988 197-308); experiment: sandwich ELISA: antibody immobilised, WT or mutant hGDF15, goat polyclonal detection; N=3, mean ± SD
T1 construct: Expressed in ExpiCHO-S cells and used as culture supernatant in the ELISA
T1 chain: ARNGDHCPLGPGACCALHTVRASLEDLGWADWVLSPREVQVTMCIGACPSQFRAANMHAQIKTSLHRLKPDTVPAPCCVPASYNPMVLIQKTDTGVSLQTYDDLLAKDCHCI

[2] = biological target: T2, mutant hGDF15 8A (human, UniProt Q99988 197-308); experiment: as above
T2 construct: Expressed in ExpiCHO-S cells and used as culture supernatant
T2 chain: T1 chain with P8A, L9A, G10A, P11A, G12A, L17A

[3] = biological target: T3, mutant hGDF15 R16A (human, UniProt Q99988 197-308); experiment: as above
T3 construct: Expressed in ExpiCHO-S cells and used as culture supernatant in the ELISA
T3 chain: T1 chain with A13R

[4] = biological target: T4, mutant hGDF15 H6A (human, UniProt Q99988 197-308); experiment: as above
T4 construct: Expressed in ExpiCHO-S cells and used as culture supernatant in the ELISA
T4 chain: T1 chain with H6A, A13R, A16R

[5] = biological target: T5, mutant hGDF15 6A (human, UniProt Q99988 197-308); experiment: as above
T5 construct: Expressed in ExpiCHO-S cells and used as culture supernatant
T5 chain: T1 chain with G10A, P11A, G12A, L17A

[6] = biological target: T6, mutant hGDF15 T72A (human, UniProt Q99988 197-308); experiment: as above
T6 construct: Expressed in ExpiCHO-S cells and used as culture supernatant in the ELISA
T6 chain: T1 chain with A13R, A16R, T72A

[7] = biological target: T7, mutant hGDF15 4A (human, UniProt Q99988 197-308); experiment: as above
T7 construct: Expressed in ExpiCHO-S cells and used as culture supernatant
T7 chain: T1 chain with G12A, L17A

[8] = biological target: T8, mutant hGDF15 3A (human, UniProt Q99988 197-308); experiment: as above
T8 construct: Expressed in ExpiCHO-S cells and used as culture supernatant
T8 chain: T1 chain with G12A

[9] = biological target: T9, mutant hGDF15 R13A (human, UniProt Q99988 197-308); experiment: as above
T9 construct: Expressed in ExpiCHO-S cells and used as culture supernatant in the ELISA
T9 chain: T1 chain with A16R

[10] = biological target: T10, human GDF15 (hGDF15), mature, wild-type (human, UniProt Q99988 197-308); experiment: competition ELISA: GFRAL immobilised, biotinylated GDF15 plus serially diluted antibody; inhibition of GDF15-GFRAL complex formation
T10 construct: Bought recombinant protein: R&D Systems 957-GD-025/CF in most assays, 9279-GD in the crystal and the GDF15/GFRAL/RET assay; It was biotinylated in the GFRAL assay; also called hGDF15 (WT); rhGDF15
T10 sequence: T1 chain with A13R, A16R
Description: First, the effect on GDF15 and GFRAL complex formation was examined (FIG. 12). GFRAL (R&D systems, 9697-GR) was immobilized on a plate, and GDF15 (R&D systems, 957-GD/CF) biotinylated with EZ-Link Micro NHS-PEG4-Bitinylation Kit (Thermo Fisher Scientific, 21955) and a serially diluted solution of an anti-GDF15 monoclonal antibody (Table 26) were reacted with the plate. Human IgG1, kappa-Isotype Control (Abcam) was used as a negative control antibody. GDF15 bound to GFRAL was detected using Pierce High Sensitivity Streptavidin-HRP (Thermo Fisher Scientific, 21130). TMB 1-Component Microwell Peroxidase Substrate, SureBlue (SeraCare Life Sciences) was used for color development, and the reaction was stopped by adding a stop solution (Wako). Absorbance was measured at 450 nm (OD450) using Emax (Molecular Devices). The % of control value was calculated according to Equation-1 from the OD450 value when each antibody was added, with the OD450 value when no antibody was added as a control. The IC50 value was obtained by calculating the inhibition rate from the % of control value thus obtained according to Equation-2 and using an Excel macro for IC50 calculation.

[11] = biological target: T10, human GDF15 (hGDF15), mature, wild-type; experiment: sandwich ELISA: antibody immobilised, WT or mutant hGDF15, goat polyclonal detection; N=3, mean ± SD (reference)
[12] = biological target: T10, human GDF15 (hGDF15), mature, wild-type; experiment: competition ELISA: GFRAL immobilised, biotinylated GDF15 plus serially diluted antibody; inhibition of GDF15-GFRAL complex formation (negative control)
[13] = biological target: T10, human GDF15 (hGDF15), mature, wild-type; experiment: competition (sandwich) ELISA: clone immobilised, hGDF15 captured; competitor: biotinylated HuMAB2
Protocol: HuMAB2 and the anti-GDF15 monoclonal antibodies shown in Table 5 (2 μg/mL) were added to 96-well plates at 100 μL/well to be immobilized on the plates, and reacted with 100 μL/well of hGDF15 (R&D Systems, 957-GD-025/CF) serially diluted from a concentration of 1 ng/ml. HuMAB2 biotinylated using EZ-Link Micro NHS-PEG4-Bitinylation Kit (Thermo Fisher Scientific, 21955) was used as the detection antibody (1 μg/mL as 100 μL/well). Whether or not sandwich ELISA was established was determined using Streptavidin-HRP conjugate in Human GDF15 ELISA Kit (R&D Systems, DY957). The detection antibody in Human GDF15 ELISA Kit (R&D Systems, DY957) (Table 5), which can establish sandwich ELISA with any monoclonal antibody, was used as a positive control antibody (PC) for sandwich ELISA.
Then, other antibodies obtained this time were tested to see whether each of these antibodies competes with HuMAB2 by the same method as described above.

Molecule: MAB957 (antibody)
relative binding (amount bound to 500 pg/mL hGDF15 = 100) (relative value (WT hGDF15 = 100)) [1]: 80.6 | relative binding (amount bound to 500 pg/mL hGDF15 = 100) (relative value (WT hGDF15 = 100)) [2]: 69.2 | relative binding (amount bound to 500 pg/mL hGDF15 = 100) (relative value (WT hGDF15 = 100)) [3]: 93.9 | relative binding (amount bound to 500 pg/mL hGDF15 = 100) (relative value (WT hGDF15 = 100)) [4]: 88.3 | relative binding (amount bound to 500 pg/mL hGDF15 = 100) (relative value (WT hGDF15 = 100)) [5]: 74.3 | relative binding (amount bound to 500 pg/mL hGDF15 = 100) (relative value (WT hGDF15 = 100)) [6]: 101 | relative binding (amount bound to 500 pg/mL hGDF15 = 100) (relative value (WT hGDF15 = 100)) [7]: 84.1 | relative binding (amount bound to 500 pg/mL hGDF15 = 100) (relative value (WT hGDF15 = 100)) [8]: 99 | relative binding (amount bound to 500 pg/mL hGDF15 = 100) (relative value (WT hGDF15 = 100)) [9]: 89.9 | IC50 [10]: 11.1 nM | relative binding (amount bound to 500 pg/mL hGDF15 = 100) (relative value (WT hGDF15 = 100)) [11]: 100

Molecule: Human IgG1 Isotype control (antibody)
IC50 [12]: > 500 nM

B1: MAB17 (antibody, V domains shown)
VH: QVTLKESGPGILQPSQTLSLTCSFSGFSLNTHGMGVGWIRQPSGKGLEWLANIWWNDDKYYNSALKSRLTLSKDTSNNQVFLKISSVDTADTATYFCAQVAWDWFAYWGQGTLVTIS
VL: QIVLTQSPAIMSASLGEEITLTCSASSSVRYMHWYQQKSGTSPKVLIYSTSNLASGVPSRFSGSGSGTFYSLTISSVEAEDAADYYCHQWSSYPWTFGGGTKLEIKR
notes: Mouse monoclonal antibody from hybridoma; also called clone MAB17
relative binding (amount bound to 500 pg/mL hGDF15 = 100) [1]: 83 relative value (WT hGDF15 = 100) | relative binding (amount bound to 500 pg/mL hGDF15 = 100) [2]: 78.8 relative value (WT hGDF15 = 100) | relative binding (amount bound to 500 pg/mL hGDF15 = 100) [3]: 101 relative value (WT hGDF15 = 100) | relative binding (amount bound to 500 pg/mL hGDF15 = 100) [4]: 87.7 relative value (WT hGDF15 = 100) | relative binding (amount bound to 500 pg/mL hGDF15 = 100) [5]: 83.9 relative value (WT hGDF15 = 100) | relative binding (amount bound to 500 pg/mL hGDF15 = 100) [6]: 104 relative value (WT hGDF15 = 100) | relative binding (amount bound to 500 pg/mL hGDF15 = 100) [7]: 95 relative value (WT hGDF15 = 100) | relative binding (amount bound to 500 pg/mL hGDF15 = 100) [8]: 110 relative value (WT hGDF15 = 100) | relative binding (amount bound to 500 pg/mL hGDF15 = 100) [9]: 97.2 relative value (WT hGDF15 = 100) | IC50 [10]: 12 nM | Inhibition % [13]: 0%

B2: Hu01G06-127 (antibody, V domains shown)
VH: QVQLVQSGAEVKKPGASVKVSCKASGYTFTDYNMDWVRQAPGQSLEWMGQINPNNGLIFFNQKFQGRVTLTTDTSTSTAYMELRSLRSDDTAVYYCAREAITTVGAMDYWGQGTLVTVSS
VL: DIQMTQSPSSLSASVGDRVTITCRTSENLHNYLAWYQQKPGKSPKLLIYDAKTLADGVPSRFSGSGSGTDYTLTISSLQPEDFATYYCQHFWSDPYTFGQGTKLEIKR
relative binding (amount bound to 500 pg/mL hGDF15 = 100) [1]: 87.6 relative value (WT hGDF15 = 100) | relative binding (amount bound to 500 pg/mL hGDF15 = 100) [2]: 57.1 relative value (WT hGDF15 = 100) | relative binding (amount bound to 500 pg/mL hGDF15 = 100) [3]: 102 relative value (WT hGDF15 = 100) | relative binding (amount bound to 500 pg/mL hGDF15 = 100) [4]: 90.5 relative value (WT hGDF15 = 100) | relative binding (amount bound to 500 pg/mL hGDF15 = 100) [5]: 61.6 relative value (WT hGDF15 = 100) | relative binding (amount bound to 500 pg/mL hGDF15 = 100) [6]: 108 relative value (WT hGDF15 = 100) | relative binding (amount bound to 500 pg/mL hGDF15 = 100) [7]: 83.5 relative value (WT hGDF15 = 100) | relative binding (amount bound to 500 pg/mL hGDF15 = 100) [8]: 96.2 relative value (WT hGDF15 = 100) | relative binding (amount bound to 500 pg/mL hGDF15 = 100) [9]: 91.4 relative value (WT hGDF15 = 100) | IC50 [10]: 0.05 nM

The remaining lines, values ahead:

Inhibition % [13]: 79%
B3: MAB13 (antibody, V domains shown)
VH: EIQLQQTGPELVKPGASVKISCKASGYSFTDYIMLWVKQRHGKSLEWIGNIHPYYGTTSYNLKFKGKATLTVDKSSSTAYMQLNSLTSEDSAVYYCARGIGGSPFAYWGQGTLVTVSA
VL: DVLMTQTPLSLPVSLGDQASISCRSSQSIVHSNGNTYLEWYLQKPGQSPKLLIYKVSNRFSGVPDRFTGTGSGTDFTLKISRVEAEDLGVYYCFQGSHVPYTFGGGTKLEIK
notes: Mouse monoclonal antibody from hybridoma; also called clone MAB13

Inhibition % [13]: 82%
B4: MAB1 (antibody, V domains shown)
VH: EVQLQQSGPELEKPGASVKISCKASGYSFTGYNMNWVKQSNGKSLEWIGNIDPYYGGTSYNQKFKGKATLTVDKSSSTAYMQLKSLTSEDSAVYYCARPGRYDGAWFAYWGQGTLVTVSA
VL: QIVLSQSPAILSASPGEKVTMTCRASSNVNYMHWYQQKPGSSPKPWIYATSNLASGVPARFSGSGSGTSYSLTISRVEAEDAATYYCQQWSDNPLTFGAGTKLELK
notes: Mouse monoclonal antibody from hybridoma; also called clone MAB1
